Tests used:
[1] = biological target: mouse PD-L1 ECD with mouse Fc tag (W315-mPro1.ECD.mFc) (mouse) (UniProt Q9EP73); assay: ELISA, plate coated with mouse PD-L1 ECD-mFc, HRP anti-human IgG detection
[2] = biological target: human PD-L1 ECD with mouse Fc tag (W315-hPro1.ECD.mFc) (human) (UniProt Q9NZQ7); assay: ELISA, plate coated with human PD-L1 ECD-mFc, HRP anti-human IgG detection
[3] = biological target: human PD-L1, full length, on CHO-K1 cells (W315-CHO-K1.hPro1.C11) (human) (UniProt Q9NZQ7); assay: FACS on human PD-L1-expressing CHO-K1 cells, PE anti-human IgG detection
[4] = biological target: cyno PD-L1 protein (SPR analyte) (cynomolgus) (UniProt G7PSE7); assay: SPR (Biacore 8K), antibody captured on anti-human IgG Fc chip, antigen as analyte, 1:1 fit
[5] = biological target: mouse PD-L1 protein (SPR analyte) (mouse) (UniProt Q9EP73); assay: as above
[6] = biological target: human PD-L1 protein (SPR analyte) (human) (UniProt Q9NZQ7); assay: as above
[7] = biological target: cynomolgus PD-L1 ECD with His tag (W315-cynoPro1.ECD.His) (cynomolgus) (UniProt G7PSE7); assay: ELISA, plate coated with cynomolgus PD-L1 ECD-His, HRP anti-human IgG detection
[8] = biological target: human LAG-3 ECD with mouse Fc tag (W339-hPro1.ECD.mFc) (human) (UniProt P18627); assay: FACS competition: antibody pre-incubated with mFc-tagged LAG-3, binding of LAG-3 to MHC-II on Raji cells detected with anti-mouse IgG Fc-PE; Top is the upper plateau of the LAG-3 signal
[9] = biological target: human LAG-3 ECD with mouse Fc tag (W339-hPro1.ECD.mFc) (human) (UniProt P18627); assay: ELISA, human LAG-3 ECD-mFc captured by coated goat anti-mouse F(ab)2, HRP anti-human IgG detection
[10] = biological target: human LAG-3 ECD with mouse Fc tag (W339-hPro1.ECD.mFc) (human) (UniProt P18627); assay: ELISA competition, blocking of mouse Fc-tagged LAG-3 binding to coated human FGL-1 (competitor FGL-1)
[11] = biological target: cynomolgus LAG-3 protein (Sino-90841-C08H) (cynomolgus); assay: ELISA, cynomolgus LAG-3-His captured by coated anti-His, HRP anti-human IgG detection
[12] = biological target: human LAG-3, full length, on cells (W339-FlpIn293.hPro1.A3) (human) (UniProt P18627); assay: FACS on human LAG-3-expressing 293 cells, PE anti-human IgG detection
[13] = biological target: human LAG-3 protein (SPR analyte) (human) (UniProt P18627); assay: SPR (Biacore 8K), antibody captured on anti-human IgG Fc chip, antigen as analyte, 1:1 fit
[14] = biological target: human LAG-3 ECD with mouse Fc tag (W339-hPro1.ECD.mFc) (human) (UniProt P18627); assay: FACS competition, blocking of mFc-tagged LAG-3 binding to MHC-II on Raji cells (competitor MHC-II)

human LAG-3 ECD with mouse Fc tag (W339-hPro1.ECD.mFc) (human), sequence (P18627 23-450): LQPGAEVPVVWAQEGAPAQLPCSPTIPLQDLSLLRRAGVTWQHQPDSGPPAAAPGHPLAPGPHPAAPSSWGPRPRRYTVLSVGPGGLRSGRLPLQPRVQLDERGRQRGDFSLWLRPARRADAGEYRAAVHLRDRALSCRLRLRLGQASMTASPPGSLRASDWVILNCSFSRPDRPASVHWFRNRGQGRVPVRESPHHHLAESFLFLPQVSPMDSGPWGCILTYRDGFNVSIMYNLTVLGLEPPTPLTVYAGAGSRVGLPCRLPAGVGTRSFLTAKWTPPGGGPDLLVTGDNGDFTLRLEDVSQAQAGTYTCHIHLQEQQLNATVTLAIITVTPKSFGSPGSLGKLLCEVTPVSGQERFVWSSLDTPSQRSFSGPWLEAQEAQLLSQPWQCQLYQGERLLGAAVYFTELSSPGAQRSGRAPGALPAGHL
human LAG-3 protein (SPR analyte) (human), sequence (P18627 23-450 limits assumed): as the sequence (P18627 23-450) above
human PD-L1, full length, on CHO-K1 cells (W315-CHO-K1.hPro1.C11) (human), sequence (Q9NZQ7 19-290): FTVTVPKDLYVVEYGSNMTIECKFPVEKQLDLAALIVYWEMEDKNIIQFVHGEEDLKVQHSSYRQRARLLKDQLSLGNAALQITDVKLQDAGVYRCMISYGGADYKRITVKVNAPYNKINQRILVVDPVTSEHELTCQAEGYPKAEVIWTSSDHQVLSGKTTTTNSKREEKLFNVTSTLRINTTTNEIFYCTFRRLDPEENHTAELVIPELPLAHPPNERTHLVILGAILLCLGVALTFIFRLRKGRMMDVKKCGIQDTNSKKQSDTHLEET
cynomolgus PD-L1 ECD with His tag (W315-cynoPro1.ECD.His) (cynomolgus), sequence (G7PSE7 entry or part of it): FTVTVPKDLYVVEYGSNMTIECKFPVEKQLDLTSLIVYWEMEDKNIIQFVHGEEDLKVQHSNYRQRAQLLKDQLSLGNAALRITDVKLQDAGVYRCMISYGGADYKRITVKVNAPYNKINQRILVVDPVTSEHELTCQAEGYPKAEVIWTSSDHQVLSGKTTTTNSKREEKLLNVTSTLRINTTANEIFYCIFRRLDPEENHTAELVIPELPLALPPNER
human PD-L1 ECD with mouse Fc tag (W315-hPro1.ECD.mFc) (human), sequence (Q9NZQ7 19-238): as the sequence (G7PSE7 entry or part of it) above, with T33A, S34A, N62S, Q68R, R82Q, L173F, A185T, I192T, L215H counted along it
human LAG-3, full length, on cells (W339-FlpIn293.hPro1.A3) (human), sequence (P18627 23-525): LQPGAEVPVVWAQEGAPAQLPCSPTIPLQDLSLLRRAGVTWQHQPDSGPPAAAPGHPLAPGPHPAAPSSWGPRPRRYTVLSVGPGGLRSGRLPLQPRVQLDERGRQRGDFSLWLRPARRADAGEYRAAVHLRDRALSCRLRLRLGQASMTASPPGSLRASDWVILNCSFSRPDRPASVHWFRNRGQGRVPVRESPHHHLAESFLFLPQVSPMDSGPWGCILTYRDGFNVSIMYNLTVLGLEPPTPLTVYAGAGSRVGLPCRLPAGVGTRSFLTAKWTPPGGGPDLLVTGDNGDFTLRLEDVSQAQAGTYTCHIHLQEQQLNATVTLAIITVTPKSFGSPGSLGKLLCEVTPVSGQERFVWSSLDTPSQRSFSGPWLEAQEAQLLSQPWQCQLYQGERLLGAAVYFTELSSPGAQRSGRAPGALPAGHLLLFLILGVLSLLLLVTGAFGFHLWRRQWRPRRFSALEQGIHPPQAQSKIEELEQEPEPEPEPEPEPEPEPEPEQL
mouse PD-L1 protein (SPR analyte) (mouse), sequence (Q9EP73 19-239 limits assumed): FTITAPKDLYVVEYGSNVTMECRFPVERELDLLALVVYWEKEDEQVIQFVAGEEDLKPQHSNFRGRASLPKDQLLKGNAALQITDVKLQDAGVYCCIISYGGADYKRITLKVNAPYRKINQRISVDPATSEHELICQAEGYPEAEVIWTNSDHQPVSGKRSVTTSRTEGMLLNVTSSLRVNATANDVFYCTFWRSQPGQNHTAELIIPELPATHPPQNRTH
mouse PD-L1 ECD with mouse Fc tag (W315-mPro1.ECD.mFc) (mouse), sequence (Q9EP73 19-239): as the sequence (Q9EP73 19-239 limits assumed) above
cyno PD-L1 protein (SPR analyte) (cynomolgus), sequence (G7PSE7 entry or part of it): as the sequence (G7PSE7 entry or part of it) above
human PD-L1 protein (SPR analyte) (human), sequence (Q9NZQ7 19-238 limits assumed): as the sequence (G7PSE7 entry or part of it) above, with T33A, S34A, N62S, Q68R, R82Q, L173F, A185T, I192T, L215H counted along it

Row | EC50 [1] [nM] | EC50 [2] [nM] | Top [2] [OD450-OD540] | EC50 [3] [nM] | Top [3] [MFI] | Kd [4] [nM] | Kd [5] [nM] | Kd [6] [nM] | EC50 [7] [nM] | Top [7] [OD450-OD540] | Top [8] [MFI] | EC50 [9] [nM] | IC50 [10] [nM] | EC50 [11] [nM] | EC50 [12] [nM] | Top [12] [MFI] | Kd [13] [nM] | koff [13] [s⁻¹] | kon [13] [M⁻¹ s⁻¹] | IC50 [14] [nM] | Substance
1 | 0.04 | 0.035 | 2.45 | 0.208 | 8790 | 6.29 | 2.31 | 0.0794 | 0.053 | 1.98 | – | – | – | – | – | – | – | – | – | – | WBP315-BMK8 (Atezolizumab) (antibody)
2 | – | – | – | – | – | – | – | – | – | – | 2910 | 0.22 | 6.37 | 3.79 | 0.237 | 1180 | 0.62 | 0.000315 | 508000 | 1.88 | WBP339-BMK1 (25F7) (antibody)
